Series [1] deals with P9-1 (Mal de Rio Cuarto virus (MRCV)) (UniProt D9U542). Put plainly: competition EMSA. The note with it: 10 mM Tris-HCl, 50 mM KCl, 0.5 mM EDTA, 10% glycerol, 1 mM DTT, pH 7.5; 30 min at room temperature; 6.5% native PAGE at 4 C.
Another series concerns the target P9-1 (Mal de Rio Cuarto virus (MRCV), UniProt D9U542 1-337). Put plainly: EMSA; 5 uM probe; concentration-dependent, 1, 3, 6 uM protein; 10 mM Tris-HCl, 50 mM KCl, 0.5 mM EDTA, 10% glycerol, 1 mM DTT, pH 7.5; 30 min at room temperature; 6.5% native PAGE at 4 C. The note with it: protein: recombinant; tags: N-terminal 52-residue tag (6xHis/Xpress/EK); label: 5'-HEX; single strand.

The series “SEC-MALS” concerns the molecule itself. Briefly: SEC-MALS.
The series “crystal structure” deals with the molecule itself. Briefly: crystal structure.
The series “cryo-EM structure” concerns the molecule itself. Briefly: cryo-EM structure.
The series “SAXS” deals with the molecule itself. Put plainly: SAXS.

poly(A), average 250 nt registered a binding signal (fold decrease of ssDNA complex) in series [1] of 10.
With GACCTCGCTCTCTGTTTCTCAT (ssDNA) [22-nt HEX-ssDNA probe], the binding result with P9-1 is given as “binds”.

B1: P9-1ΔC-arm (residues 1 to 313 of MRCV P9-1, lacking the 24 C-terminal residues) (domain or fragment)
chain: MADLERRTFGSYKIEEITIKNDQQQKTTNQQQISNNEQRISTKKIPILDDGIFDLINYLLNGTHFDKTHYCGFDYSHLPTLERDFNTASNYVSENYSIIVEEIDLNKYERSESISLKSPDFTVVLEYFKKHVEGQTEQEENKTESTSSELPAKIVRELPLLPIMCRESEDSISEDILEGEGAVIQVLKMFMKGFLVHLGENPNSYDRQLTIEKYRPLLISIIGYEFTVGTRATHTKINHIYYQLATFDNYPFDLLRFQLQSLIDTPNVIKERIEKDGLFKVITTTNARGQYQSVLLRGINGSESYLNLKRYRK
notes: source: E. coli BL21, purified (IMAC on Ni-NTA, SEC on Superdex 200); not shown: His6, N-terminal, kept
As for B1, the “stoichiometry N” value in the series “SEC-MALS” was roughly 2.3 protomers; in “crystal structure”, 2.

B2: P9-1 major viroplasm protein of mal de Río Cuarto virus (MRCV), full-length, expressed in E. coli from pRSET (natural protein)
chain: MADLERRTFGSYKIEEITIKNDQQQKTTNQQQISNNEQRISTKKIPILDDGIFDLINYLLNGTHFDKTHYCGFDYSHLPTLERDFNTASNYVSENYSIIVEEIDLNKYERSESISLKSPDFTVVLEYFKKHVEGQTEQEENKTESTSSELPAKIVRELPLLPIMCRESEDSISEDILEGEGAVIQVLKMFMKGFLVHLGENPNSYDRQLTIEKYRPLLISIIGYEFTVGTRATHTKINHIYYQLATFDNYPFDLLRFQLQSLIDTPNVIKERIEKDGLFKVITTTNARGQYQSVLLRGINGSESYLNLKRYRKFKVRVVGNVDNVIKNDFSSLKLDV
notes: source: E. coli BL21, purified (IMAC on Ni-NTA, SEC on Superdex 200); copies: 10 or 12
Turning to B2, the entries for the “stoichiometry N” value in the series “SEC-MALS”, in the series “cryo-EM structure” and in the series “SAXS” were roughly 10.4 protomers, 12 and 10, respectively.
